Data reported in the DeepSol protein solubility set.

Assay: soluble on expression in E. coli; label from the status in PepcDB or PDB records

| Sequence | soluble on expression in E. coli |
| --- | --- |
| MLEKSFLKSKQLFLCGLGVLMLQACTCPNTSQRNSFLQDVPYWMLQNRSEYITQGVDSSHIVDGKKTEEIEKIATKRATIRVAQNIVHKLKEAYLSKTNRIKQKITNEMFIQMTQPIYDSLMNVDRLGIYINPNNEEVFALVRARGFDKDALSEGLHKMSLDNQAVSILVAKVEEIFKDSVNYGDVKVPIAM | not soluble |
| MLEKVYVALIHYPIKGKDGSIISTAVTNLDVHDIARTARTYNLKGYYIVTNLRAQQDMVSKMLKFWREGFGSRYNPSRAESLKLVKLKSYLEDVLEDIESVEGERPLIFFTSAKKRENDISFEEGRRIIIETEKPVLILLGTGWGLPDEILEISDYVLEPIRAQSDFNHLSVRAAAAIIIDRLIGENYARRD | soluble |
| MLESVVAYGIIAGARAITGLRSLWLGTTPIPKQRIYYANHSSHGDFVLLWASLPPEVRRRTRPVAGADYWNKAGLRSYVINKVFNGVLVDRQRSEANANPLEPLDRALDGGDSLIIFPEGTRNLDDEVKLLPFKSGIYHLSLAHPDVELVPVWLANLNRVMPKGRMLPLPLLCTLSFGKPLVATAEEGKEAFLERARMALLDLAPEEEA | not soluble |
| MLFSLKYLGMTLVEQPKGEELSAAAIKRIVATAKASGKKLQKVTLKVSPRGIILTDNLTNQLIENVSIYRISYCTADKMHDKVFAYIAQSQHNQSLECHAFLCTKRKMAQAVTLTVAQAFKVAFEFWQVSKEEKEKRDKASQEGGDVLGARQDCTPPLKSLVATGNLLDLEETAKAPLSTVSANTTNMDEVPRPQALSGSSVVWELDDGLDEAFSRLAQSRTNPQVLDTGLTAQDMHYAQCLSPVDWDKPDSSGTEQDDLFSF | soluble |
| MLGRRAVSVHRFLSRAARQSVTAASSAQPSLQAKTSLLEPLVQNVRITSSANFHMSAVRMSDVITVEGPAFAESISEGDIRWLKQKGDHVNEDELVAEIETDKTSVEVPAPQAGTIVEFLVEDGAKVTAKQKLYKLQPGAGGGSSSAPAKEEPKSAPAKEESKPAPAKEDSKPAVTAAAPPKPVSGDIPKSAPPVARPPSTPSSSTPVGAVPVTRVVVPKGVDPSHAITGARDEVRVKANRMRMRIAQRLKDAQNTYAMLTTFNEIDMSSLIEMRKTYQKDFVAKHGVKLGMMSPFVRAAAYALQESPVVNAVLDENEIVYRHFVDISVAVATPKGLVVPVLRNVESMNYAQIELELANLGVKARDGKLAVEDMEGGTFTISNGGVFGSMFGTPIINPPQSAILGMHGVFDRVVPVNGKPEIRPIMQIALTYDHRLIDGREAVTFLKKIKTAVEDPRIMFMNL | not soluble |
| MLIACRLCAKAVQQGLKTVVYVPDERLAGQFDKLLWTFTPTGFVPHCRVDNKLADVTPVIMNSRPVLMEAGCFGVLLNLDADVPPGFEQFPRVVEIVDEAEDGKLQARKRYRHYQEQGHDVRHHRLDGN | not soluble |
| MLIKQTDYFRIYRVINSLLISQNADPASASMYFSTFGAFILQQHYKVKAVPKGGLAAYNLGGTVLLFADHREDGYVTGAGENFHCWVEADGWAIDFMAPAFSEGTDALAVPAKMFQRPLSAMAASINDLGQSGDFFYRSEPEATARRFADWHKQAMIGDMASVAANWFRKSPKQMAASLSVTDRDGKARTVPLTGEMLTGAW | soluble |
| MLIRTEAPADILTIDRLLKHAFPTDAEANLVMRLRENGKLTLSLVACTDEGEVIGHALFSPVTLNGEDLSWQGLAPLAVHEDYRRQGIGAELIKEGFESLRDFGYPVCVVLGEPNYYARQGFNAGEEMGFECAWEVPEGAFRVAELVEGQCTGRSGRIDYAPEFSEL | not soluble |
| MLIRVEIPIDAPGIDALLRRSFESDAEAKLVHDLREDGFLTLGLVATDDEGQVVGYVAFSPVDVQGEDLQWVGMAPLAVDEKYRGQGLARQLVYEGLDSLNEFGYAAVVTLGDPALYSRFGFELAAHYDLHCRWPGTESAFQVHRLAEDALEGVTGLVEYHDHFNRF | not soluble |
| MLITDTLSPQAFEEALRAKGDFYHIHHPYHIAMHNGNATREQIQGWVANRFYYQTTIPLKDAAIMANCPDAQTRRKWVQRILDHDGSHGEDGGIEAWLRLGEAVGLSRDDLLSERHVLPGVRFAVDAYLNFARRACWQEAACSSLTELFAPQISQSRLDSWPQHYPWIKEEGYFYFRSRLSQANRDVEHGLALAKAYCDSAEKQNRMLEILQFKLDILWSMLDAMTMAYALQRPPYHTVTDKAAWHTTRLVLEHHHHH | soluble |
| MLKGEDIGIDLGTASVLIYVRGKGIVLKEPSVIAVVQGKREVKAVGAEAYRMLGRTPGNIVAVRPLKDGVIADYALTEKMLLLFLQKVLSPMSRLFKGRVRIMVGVPSGVTDVERRAVVQAVSTLAHKVYLIEEPLAAAIGAGINVAEPTGSMVVDIGGGSTDIAVISLGGIVRSESLRIAGNEMDQAIILHIRQKYNLLIGERTAEELKIRLGRAKLLPGEEKEVAEVRGRDLLTGLPRTAEIPAEDIVEALQEPLSKIFQGVRNVLESTPPELASDIYERGILLTGGGALLRNLDVALQKATGVPVVVTENPIEAVALGTGKALEMLHVLEDTILSSDDVLRR | soluble |
| MLKGFTPWPDELAETYRKNGCWAGETFGDLLRDRAAKYGDRIAITCGNTHWSYRELDTRADRLAAGFQKLGIQQKDRVVVQLPNIKEFFEVIFALFRLGALPVFALPSHRSSEITYFCEFAEAAAYIIPDAYSGFDYRSLARQVQSKLPTLKNIIVAGEAEEFLPLEDLHTEPVKLPEVKSSDVAFLQLSGGSTGLSKLIPRTHDDYIYSLKRSVEVCWLDHSTVYLAALPMAHNYPLSSPGVLGVLYAGGRVVLSPSPSPDDAFPLIEREKVTITALVPPLAMVWMDAASSRRDDLSSLQVLQVGGAKFSAEAARRVKAVFGCTLQQVFGMAEGLVNYTRLDDPEEIIVNTQGKPMSPYDESRVWDDHDRDVKPGETGHLLTRGPYTIRGYYKAEEHNAASFTEDGFYRTGDIVRLTRDGYIVVEGRAKDQINRGGEKVAAEEVENHLLAHPAVHDAAMVSMPDQFLGERSCVFIIPRDEAPKAAELKAFLRERGLAAYKIPDRVEFVESFPQTGVGKVSKKALREAISEKLLAGFKK | soluble |
| MLKIIQGALDTRELLKAYQEEACAKNFGAFCVFVGIVRKEDNIQGLSFDIYEALLKTWFEKWHHKAKDLGVVLKMAHSLGDVLIGQSSFLCVSMGKNRKNALELYENFIEDFKHNAPIWKYDLIHNKRIYAKERSHPLKGSGLLALEHHHHHH | soluble |
| MLKNLRIGKFEPEEEYVHFTYSIKNSEREKSKELIKEYRTLLQKAIDYLWSLTKIQVRKKNGNYKITLPKKKEVYKPLREELEKINHLASHYVDKAINDAFSILKSWRKRAIKGRASIEKPRVKKAYVRIKTTLRKVVGESVRITVRPHEYITFPWSKSWFSRRVRELELGEPIIKEEKVYLPFRYKLPWVTPVNFLAIDSNLYTLDAYDGEKFVTISLKQLYSLKYSMEVKRAKVQSFASKHTKRGRELMRKYSHRERNRVLDFVHKFVNALLDLYPMTFFAVEKLDKEGMFVDANESLSRKISRTVWRSIHRVLKYKAPLYGSFVKEVNPYLTSRSCPRCGFVSRKVGKTFECERCGFKLDRQLNASLNIYLKMCGFPHIREIARVWVGVIPLMGRRGMNVRDFGEAQGLRINIKYHEIPLEHHHHHH | not soluble |
| MLKPEMIEKLNEQMNLELYSSLLYQQMSAWCSYHTFEGAAAFLRRHAQEEMTHMQRLFDYLTDTGNLPRINTVESPFAEYSSLDELFQETYKHEQLITQKINELAHAAMTNQDYPTFNFLQWYVSEQHEEEKLFKSIIDKLSLAGKSGEGLYFIDKELSTLDTQN | soluble |
| MLKQNTEREGRTIEQEDLKNLENEITEARENEDKYFSTFKGVRGQLIKECQEMKDEAFKIAYDGVMADSKHLENVKAGRLTEVQHEELAKEKGQEASEKALPKTPLGVAIMLKHYLRFIRVKPEAQGQKAPLYFFHPDHGVWLEDNEFLQDLISVIFPNATEKQAFDTLYKIARQSQLKEIQREYTVIGNQLYNYKTGQFEELTPDITVTRKIKTGYNKKAKEPTIKGWKPTAWLLELFDGDAELYNLAIQIIKASITGQSLQKIFWLFGEGGTGKGTFQQLLINLVGMDNVASLKITELAKSRFTTSILLGKSIVIGDDIQKDAVIKDTSDIFSLATGDIMTIEDKGKRPYSIRLNMTVVQSSNGLPRMNGDKSAIDRRFRILPFTKVFKGKPNKAIRNDYINRKEVLEYLLKLAIETPITDINPKASIEILEEHHKEMNPVIDFVSKFFTDELTSEFIPNSFVYHVWKGFLEYYDIKQIKSERGLHKEIKSNLPEGFEAGQKVIPVGRQLHTGFYPKEDLPLFASASYANGRASPEKRKKPKNERGYYNHWPTHKKQKKT | soluble |
| MLKRTPLFPVYARYGAKTIEFGGWEMPVQFSSIKEEHEAVRTRAGLFDVSHMGEIVVRGRGSLAFLQKLMTNDVAKLRPGRAQYTLMCYEDGGTVDDLLIYQKGENDYLLVVNAANTEKDFAWLSGHVEGDVELQDVSSETAQLALQGPAAERVLQRLTDFDLAALRPFSFADGVEVSGVKALVSRTGYTGEDGFELYCKAEDAAALWEAILAAGARDGVLPCGLGARDTLRFEACLPLYGQELSDSISPVEAGLGFAVKTEKEPPFIGQAVLKRQKEEGPPRRLVGIEMIDRGIPRHGYLVFADGEEVGFVTTGTQSPTLKKNIGLALVKADVAAIGREVEVDIRGKRLKANIVPIPFYRRAK | not soluble |
| MLKVESISKDYREFKLREISFDVREGEHFIILGPSGSGKTVLLEIIAGIISPDRGRILLRGEDITGLPPEKRNFSYIPQNYALFPHMTVFDNIAFGLKLRKIPRKEVARKVREVAESLGIDHLLHRKPRTLSGGEQQRVAIARALVVKPELLLMDEPFANLDVQTKSKLIREMKRWRKEFGFTAIHVTHSFEEALSLGDRVGIMLRGRLVQVGDVRDVFSKPKSEEVARFLGFENIIEGVANGRILKVGDLRIELPREVWGKVRVGIRPEDITIFMEGVKTSARNVFKARVEGIEDLGALVKLTLNLGGIILRAFITRSSLIELGIREGEEVYASFKASAIHVFP | soluble |
| MLLGMSLEELTTVALRMGMPRFAGKQLAEWIYVRRATDFAEMTNISQANRQKLAEIYDLGRYPWSDVQCSVDGTKKYLFPVGEGRFVESVLIPEGDRATLCISSQVGCKMDCLFCMTGKQGWNGNLSAAEILNQIFSVDEAAELTNLVYMGMGEPLDNTDEVLRSIEALTEPWGMGWSPKRITVSTIGAKGLERFLAESRCHLAVSLHSPFPEERRKLMPGEKAFPIMQTLDRIRAYDFSGQRRVSFEYIVFDGLNDDMRHADELAAILRGIPCRINLIRFHKIPAVSLRSSDTARMEAFRKRMESHGFTCTIRASRGEDIFAACGMLSTSKAESSEEKSS | not soluble |
| MLLNLFNEMRAAKVPVSLRELLDLINALKQRVIFADIDEFYFLARTILVKDERHFDKFDRAFGAYFNGLEKLDDHLQALIPEDWLRKEFERSLSDEERAQIQSLGGLDKLIDEFKKRLEEQKERHAGGNKWIGTGGTSPFGSGGYNPEGIRVGDAGERKGKAVKVWDQREYKNLDDQVDLGTRNIKVALRRLRKFARQGAADELDIDGTIDHTARDAGLLNIQMRPERRNTIKLLLLFDIGGSMDSHVKVCEELFSACKTEFKHMEYFYFHNFIYETVWKNNLRRGSERTATQDLLHKYGADYKVIFIGDASMAPYEITQPGGSVEHWNEEAGYVWMQRFMAKFKKVIWINPYPKDAWDYTTSTHIVRDLIEQHMYPLTLQGLEDGMRYLA | not soluble |
| MLLRILIADDEPLARERLRVLLQAQMQHLEVVAEAENGEQVLHDCQRLNPDLVLMDIAMPGIDGLETARYLRYLPACPAVVFCTAYGDHALSAFDVEAIDYLMKPVRAERLHAALKRVQTFVAGRLREPQTSCDETPRTHLCVRIRGGLRLIPLDQVRYLQADEKYVVICHEQGEDLIEESLKSLEKEFSDRFVRIHRNCLIARAELTELRRCSDGQVQAVLRNVVTPLAVSRRCVPLLCDQLRLSAVLTGRWLEHHHHHH | not soluble |
